# Assay results published in paper PMC2926618.
# Where a chain is given by its changes, count along the chain named.
# T1: GST-ZBTB4 zinc fingers (Homo sapiens, UniProt Q9P1Z0 268-460)
# T1 sequence: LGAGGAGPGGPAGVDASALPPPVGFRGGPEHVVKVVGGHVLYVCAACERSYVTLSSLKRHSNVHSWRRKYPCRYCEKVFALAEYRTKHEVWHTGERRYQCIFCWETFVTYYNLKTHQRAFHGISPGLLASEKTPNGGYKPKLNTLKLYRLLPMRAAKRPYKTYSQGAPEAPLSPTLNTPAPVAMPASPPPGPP
# T2: GST-ZBTB38 zinc fingers (Homo sapiens, UniProt Q8NAP3 418-612)
# T2 sequence: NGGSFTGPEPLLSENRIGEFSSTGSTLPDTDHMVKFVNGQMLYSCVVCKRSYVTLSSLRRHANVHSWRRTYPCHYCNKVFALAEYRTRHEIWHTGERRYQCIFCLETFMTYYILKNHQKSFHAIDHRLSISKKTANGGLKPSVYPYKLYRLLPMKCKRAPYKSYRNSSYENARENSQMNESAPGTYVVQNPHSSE
# T3: GST-Kaiso zinc fingers (Homo sapiens, UniProt Q86T24 454-638)
# T3 sequence: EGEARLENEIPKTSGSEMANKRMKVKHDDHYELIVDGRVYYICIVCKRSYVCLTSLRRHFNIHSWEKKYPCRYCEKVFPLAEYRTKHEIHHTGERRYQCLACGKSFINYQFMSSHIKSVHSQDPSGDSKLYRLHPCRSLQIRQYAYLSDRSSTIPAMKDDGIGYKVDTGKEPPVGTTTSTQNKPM
# T4: GST-ZBTB4 T376A (Homo sapiens, UniProt Q9P1Z0 268-460, T376A)
# T4 sequence: T1 sequence with T109A
# T5: GST-ZBTB4 S323A (Homo sapiens, UniProt Q9P1Z0 268-460, S323A)
# T5 sequence: T1 sequence with S56A
# T6: GST-ZBTB4 L348A (Homo sapiens, UniProt Q9P1Z0 268-460, L348A)
# T6 sequence: T1 sequence with L81A
# T7: GST-ZBTB4 R326A (Homo sapiens, UniProt Q9P1Z0 268-460, R326A)
# T7 sequence: T1 sequence with R59A
# T8: GST-Kaiso E535A (Homo sapiens, UniProt Q86T24 454-638, E535A)
# T8 sequence: T3 sequence with E82A
# T9: GST-ZBTB4 Y351A (Homo sapiens, UniProt Q9P1Z0 268-460, Y351A)
# T9 sequence: T1 sequence with Y84A
# T10: GST-ZBTB4 K354A (Homo sapiens, UniProt Q9P1Z0 268-460, K354A)
# T10 sequence: T1 sequence with K87A
# T11: GST-ZBTB4 E350A (Homo sapiens, UniProt Q9P1Z0 268-460, E350A)
# T11 sequence: T1 sequence with E83A
# B1: meZ4BS hemimethylated, upper strand (dsDNA)
# DNA 1: GTAGAAGTTCCCGCCATCACTATTG
# DNA 2: CAATAGTGATGGCGGGAACTTCTAC
# modifications: 5mC at strand 1 C12 only
# B2: MS20 methylated (ACGCTTG) (dsDNA)
# DNA 1: AAGGCCAACGCTTGTGGT
# DNA 2: ACCACAAGCGTTGGCCTT
# modifications: 5mC at CpG, both strands (SssI)
# B3: S15 (CCGCCATC) (dsDNA)
# DNA 1: ACCCAACCGCCATCTGGGT
# DNA 2: ACCCAGATGGCGGTTGGGT
# B4: S2 (CTGCCATC) (dsDNA)
# DNA 1: ACCCACCTGCCATCTAGGT
# DNA 2: ACCTAGATGGCAGGTGGGT
# B5: meZ4BS (CMGCCAT) (dsDNA)
# DNA 1: GTAGAAGTTCCCGCCATCACTATTG
# DNA 2: CAATAGTGATGGCGGGAACTTCTAC
# modifications: 5mC at strand 1 C12 and strand 2 C13
# B6: Z4BS (ZBS, CTGCCATC; = TG/AC) (dsDNA)
# DNA 1: GTAGAAGTTCCTGCCATCACTATTG
# DNA 2: CAATAGTGATGGCAGGAACTTCTAC
# B7: TG/GC mismatch (dsDNA)
# DNA 1: GTAGAAGTTCCTGCCATCACTATTG
# DNA 2: CAATAGTGATGGCGGGAACTTCTAC
# B8: MS20 unmethylated (ACGCTTG) (dsDNA)
# DNA 1: AAGGCCAACGCTTGTGGT
# DNA 2: ACCACAAGCGTTGGCCTT
# B9: MS8 methylated (CCGCTAT) (dsDNA)
# DNA 1: ACCCAAACCGCTATCCTT
# DNA 2: AAGGATAGCGGTTTGGGT
# modifications: 5mC at CpG, both strands (SssI)
# B10: Non-selected (dsDNA)
# DNA 1: ACCAAGCAACACACCCCGT
# DNA 2: ACGGGGTGTGTTGCTTGGT
# Legend:
# [1] = target: T1, GST-ZBTB4 zinc fingers; assay: competition
# [2] = target: T1, GST-ZBTB4 zinc fingers; assay: EMSA
# [3] = target: T2, GST-ZBTB38 zinc fingers; assay: EMSA
# [4] = target: T3, GST-Kaiso zinc fingers; assay: EMSA
# [5] = target: T4, GST-ZBTB4 T376A; assay: EMSA
# [6] = target: T5, GST-ZBTB4 S323A; assay: EMSA
# [7] = target: T6, GST-ZBTB4 L348A; assay: EMSA
# [8] = target: T7, GST-ZBTB4 R326A; assay: EMSA
# [9] = target: T8, GST-Kaiso E535A; assay: EMSA
# [10] = target: T9, GST-ZBTB4 Y351A; assay: EMSA
# [11] = target: T10, GST-ZBTB4 K354A; assay: EMSA
# [12] = target: T1, GST-ZBTB4 zinc fingers; assay: competition; remark: listed apart in the source
# [13] = target: T1, GST-ZBTB4 zinc fingers; assay: EMSA; remark: listed apart in the source
# [14] = target: T11, GST-ZBTB4 E350A; assay: EMSA
binder,measurement,setting,value
B1,binding result,[1],binds
B2,binding result,[2],binds
B3,binding result,[3],no binding
same,binding result,[2],binds
same,binding result,[4],binds
B4,binding result,[3],no binding
same,binding result,[2],binds
same,binding result,[4],binds
B5,binding result,[5],binds
same,binding result,[6],binds
same,binding result,[7],binds
same,binding result,[8],no binding
same,binding result,[9],no binding
same,binding result,[10],binds
same,binding result,[3],binds
same,binding result,[11],binds
same,binding result,[12],binds
B6,binding result,[13],binds
same,binding result,[5],binds
same,binding result,[8],no binding
same,binding result,[9],binds
same,binding result,[11],binds
same,binding result,[14],binds
B7,binding result,[14],binds
B8,binding result,[2],no binding
B9,binding result,[2],binds
B10,binding result,[2],no binding
